Measurements from the supplement of paper PMC11246515.
± gives the standard deviation of the averaged measurements.

Assay: total protein half-life in vivo (active degradation + dilution); higher = more stable protein
[1] = E. coli NCM3722 delta-clpP delta-lon delta-hslV, growth: N-lim chemostat, doubling time 6 h
[2] = E. coli NCM3722 delta-clpP, growth: N-lim chemostat, doubling time 6 h
[3] = E. coli NCM3722 delta-hslV, growth: N-lim chemostat, doubling time 6 h
[4] = E. coli NCM3722 delta-lon, growth: N-lim chemostat, doubling time 6 h
[5] = E. coli NCM3722 delta-smpB, growth: N-lim chemostat, doubling time 6 h
[6] = wild type E. coli NCM3722, growth: C-lim chemostat, doubling time 3 h
[7] = wild type E. coli NCM3722, growth: C-lim chemostat, doubling time 6 h
[8] = wild type E. coli NCM3722, growth: C-lim chemostat, doubling time 12 h
[9] = wild type E. coli NCM3722, growth: N-lim chemostat, doubling time 6 h
[10] = wild type E. coli NCM3722, growth: N-lim chemostat, doubling time 12 h
[11] = wild type E. coli NCM3722, growth: P-lim chemostat, doubling time 6 h
[12] = wild type E. coli NCM3722, growth: P-lim chemostat, doubling time 12 h

Sequence	total protein half-life in vivo [1] [h]	total protein half-life in vivo [2] [h]	total protein half-life in vivo [3] [h]	total protein half-life in vivo [4] [h]	total protein half-life in vivo [5] [h]	total protein half-life in vivo [6] [h]	total protein half-life in vivo [7] [h]	total protein half-life in vivo [8] [h]	total protein half-life in vivo [9] [h]	total protein half-life in vivo [10] [h]	total protein half-life in vivo [11] [h]	total protein half-life in vivo [12] [h]
MTILNHTLGFPRVGLRRELKKAQESYWAGNSTREELLAVGRELRARHWDQQKQAGIDLLPVGDFAWYDHVLTTSLLLGNVPARHQNKDGSVDIDTLFRIGRGRAPTGEPAAAAEMTKWFNTNYHYMVPEFVKGQQFKLTWTQLLDEVDEALALGHKVKPVLLGPVTWLWLGKVKGEQFDRLSLLNDILPVYQQVLAELAKRGIEWVQIDEPALVLELPQAWLDAYKPAYDALQGQVKLLLTTYFEGVTPNLDTITALPVQGLHVDLVHGKDDVAELHKRLPSDWLLSAGLINGRNVWRADLTEKYAQIKDIVGKRDLWVASSCSLLHSPIDLSVETRLDAEVKSWFAFALQKCHELALLRDALNSGDTAALAEWSAPIQARRHSTRVHNPAVEKRLAAITAQDSQRANVYEVRAEAQRARFKLPAWPTTTIGSFPQTTEIRTLRLDFKKGNLDANNYRTGIAEHIKQAIVEQERLGLDVLVHGEAERNDMVEYFGEHLDGFVFTQNGWVQSYGSRCVKPPIVIGDISRPAPITVEWAKYAQSLTDKPVKGMLTGPVTILCWSFPREDVSRETIAKQIALALRDEVADLEAAGIGIIQIDEPALREGLPLRRSDWDAYLQWGVEAFRINAAVAKDDTQIHTHMCYCEFNDIMDSIAALDADVITIETSRSDMELLESFEEFDYPNEIGPGVYDIHSPNVPSVEWIEALLKKAAKRIPAERLWVNPDCGLKTRGWPETRAALANMVQAAQNLRRG	3.21 ± 0.81	2.4 ± 0.23	2.34 ± 0.34	2.938 ± 0.012	2.6 ± 0.53	2.48 ± 0.19	4.22 ± 0.071	6.91 ± 0.33	2.56 ± 0.063	3.593 ± 0.023	4.14 ± 0.21	6.88 ± 1.1
MQDLISQVEDLAGIEIDHTTSMVMIFGIIFLTAVVVHIILHWVVLRTFEKRAIASSRLWLQIITQNKLFHRLAFTLQGIIVNIQAVFWLQKGTEAADILTTCAQLWIMMYALLSVFSLLDVILNLAQKFPAASQLPLKGIFQGIKLIGAILVGILMISLLIGQSPAILISGLGAMAAVLMLVFKDPILGLVAGIQLSANDMLKLGDWLEMPKYGADGAVIDIGLTTVKVRNWDNTITTIPTWSLVSDSFKNWSGMSASGGRRIKRSISIDVTSIRFLDEDEMQRLNKAHLLKPYLTSRHQEINEWNRQQGSTESVLNLRRMTNIGTFRAYLNEYLRNHPRIRKDMTLMVRQLAPGDNGLPLEIYAFTNTVVWLEYESIQADIFDHIFAIVEEFGLRLHQSPTGNDIRSLAGAFKQ [P0AAT4]	6.49 ± 0.43	6.36 ± 0.28	6.274 ± 0.01	6.69 ± 1.4	6.33 ± 0.022	3.52 ± 0.6	6.12 ± 0.22	13.9 ± 0.19	6.22 ± 0.46	12 ± 1.6	5.84 ± 0.59	13.7 ± 1.2
MKIHTTEALMKAEISRRSLMKTSALGSLALASSAFTLPFSQMVRAAEAPVEEKAVWSSCTVNCGSRCLLRLHVKDDTVYWVESDTTGDDVYGNHQVRACLRGRSIRRRMNHPDRLKYPMKRVGKRGEGKFERISWDEALDTISDNLRRILKDYGNEAVHVLYGTGVDGGNITNSNVPYRLMNSCGGFLSRYGSYSTAQISAAMSYMFGANDGNSPDDIANTKLVVMFGNNPAETRMSGGGVTYYVEQARERSNARMIVIDPRYNDTAAGREDEWLPIRPGTDGALACAIAWVLITENMVDQPFLDKYCVGYDEKTLPANAPRNAHYKAYILGEGPDGIAKTPEWAAKITSIPAEKIIQLAREIGSAKPAYICQGWGPQRHSNGEQTSRAIAMLSVLTGNVGINGGNSGVREGSWDLGVEWFPMLENPVKTQISVFTWTDAIDHGTEMTATRDGVRGKEKLDVPIKFLWCYASNTLINQHGDINHTHEVLQDDSKCEMIVGIDHFMTASAKYCDILLPDLMPTEQEDLISHESAGNMGYVILAQPATSAKFERKPIYWMLSEVAKRLGPDVYQTFTEGRSQHEWIKYLHAKTKERNPEMPDYEEMKTTGIFKKKCPEEHYVAFRAFREDPQANPLKTPSGKIEIYSERLAKIADTWELKKDEIIHPLPAYTPGFDGWDDPLRKTYPLQLTGFHYKARTHSSYGNIDVLQQACPQEVWINPIDAQARGIRHGDTVRVFNNNGEMLIAAKVTPRILPGVTAIGQGAWLKADMFGDRVDHGGSINILTSHRPSPLAKGNPSHSNLVQIEKV	6.47 ± 2.1	–	–	–	4.94	–	4.9	13.9	–	3.57	–	3.5
MKAILIPFLSLLIPLTPQSAFAQSEPELKLESVVIVSRHGVRAPTKATQLMQDVTPDAWPTWPVKLGWLTPRGGELIAYLGHYQRQRLVADGLLAKKGCPQSGQVAIIADVDERTRKTGEAFAAGLAPDCAITVHTQADTSSPDPLFNPLKTGVCQLDNANVTDAILSRAGGSIADFTGHRQTAFRELERVLNFPQSNLCLKREKQDESCSLTQALPSELKVSADNVSLTGAVSLASMLTEIFLLQQAQGMPEPGWGRITDSHQWNTLLSLHNAQFYLLQRTPEVARSRATPLLDLIKTALTPHPPQKQAYGVTLPTSVLFIAGHDTNLANLGGALELNWTLPGQPDNTPPGGELVFERWRRLSDNSQWIQVSLVFQTLQQMRDKTPLSLNTPPGEVKLTLAGCEERNAQGMCSLAGFTQIVNEARIPACSL	5.24 ± 0.47	5.26 ± 0.056	6.56 ± 0.62	6.26 ± 0.8	5.84 ± 0.11	3.02 ± 0.21	–	11.6 ± 0.68	5.94 ± 0.28	12.6 ± 0.49	5.7 ± 0.15	11.9 ± 0.49
MKPVKPPRINGRVPVLSAQEAVNYIPDEATLCVLGAGGGILEATTLITALADKYKQTQTPRNLSIISPTGLGDRADRGISPLAQEGLVKWALCGHWGQSPRISELAEQNKIIAYNYPQGVLTQTLRAAAAHQPGIISDIGIGTFVDPRQQGGKLNEVTKEDLIKLVEFDNKEYLYYKAIAPDIAFIRATTCDSEGYATFEDEVMYLDALVIAQAVHNNGGIVMMQVQKMVKKATLHPKSVRIPGYLVDIVVVDPDQTQLYGGAPVNRFISGDFTLDDSTKLSLPLNQRKLVARRALFEMRKGAVGNVGVGIADGIGLVAREEGCADDFILTVETGPIGGITSQGIAFGANVNTRAILDMTSQFDFYHGGGLDVCYLSFAEVDQHGNVGVHKFNGKIMGTGGFIDISATSKKIIFCGTLTAGSLKTEITDGKLNIVQEGRVKKFIRELPEITFSGKIALERGLDVRYITERAVFTLKEDGLHLIEIAPGVDLQKDILDKMDFTPVISPELKLMDERLFIDAAMGFVLPEAAH	5.68 ± 0.1	4.03 ± 0.058	3.94 ± 0.05	4.17 ± 0.1	3.728 ± 0.031	2.75 ± 0.29	5.2 ± 0.61	10.7 ± 1.1	3.81 ± 0.14	6.72 ± 0.91	6.39 ± 0.56	11.1 ± 0.4
MRVLGIETSCDETGIAIYDDEKGLLANQLYSQVKLHADYGGVVPELASRDHVRKTVPLIQAALKESGLTAKDIDAVAYTAGPGLVGALLVGATVGRSLAFAWDVPAIPVHHMEGHLLAPMLEDNPPEFPFVALLVSGGHTQLISVTGIGQYELLGESIDDAAGEAFDKTAKLLGLDYPGGPLLSKMAAQGTAGRFVFPRPMTDRPGLDFSFSGLKTFAANTIRDNGTDDQTRADIARAFEDAVVDTLMIKCKRALDQTGFKRLVMAGGVSANRTLRAKLAEMMKKRRGEVFYARPEFCTDNGAMIAYAGMVRFKAGATADLGVSVRPRWPLAELPAA	4.38 ± 0.12	3 ± 0.72	3.73 ± 1.1	4.84 ± 1.2	3.17 ± 0.33	2.618 ± 0.021	4.72 ± 0.64	7.77 ± 1.6	3.33 ± 0.5	4.16 ± 0.42	4.07 ± 0.11	8.07 ± 0.76
MRYRIFLLFFFALLPTSLVWAAPAQRAFSDWQVTCNNQNFCVARNTGDHNGLVMTLSRSAGAHTDAVLRIERGGLKSPEASEGEIAPRLLLDGEPLALSGDKWRISPWLLVTDDTATITAFLQMIQEGKAITLRDGDQTISLSGLKAALLFIDAQQKRVGSETAWIKKGDEPPLSVPPAPALKEVAVVNPTPTPLSLEERNDLLDYGNWRMNGLRCSLDPLRREVNVTALTDDKALMMISCEAGAYNTIDLAWIVSRKKPLASRPVRLRLPFNNGQETNELELMNATFDEKSRELVTLAKGRGLSDCGIQARWRFDGQRFRLVRYAAEPTCDNWHGPDAWPTLWITR	4.79 ± 0.75	5.182 ± 0.02	6.05 ± 0.37	5.51 ± 0.2	5.55 ± 0.54	3.44 ± 0.45	5.86 ± 1.1	10.4 ± 2	5.2 ± 0.56	12.9 ± 3.8	4.81 ± 0.49	9.92 ± 0.41
MAGLPNSSNALQQWHHLFEAEGTKRSPQAQQHLQQLLRTGLPTRKHENWKYTPLEGLINSQFVSIAGEISPQQRDALALTLDSVRLVFVDGRYVPALSDATEGSGYEVSINDDRQGLPDAIQAEVFLHLTESLAQSVTHIAVKRGQRPAKPLLLMHITQGVAGEEVNTAHYRHHLDLAEGAEATVIEHFVSLNDARHFTGARFTINVAANAHLQHIKLAFENPLSHHFAHNDLLLAEDATAFSHSFLLGGAVLRHNTSTQLNGENSTLRINSLAMPVKNEVCDTRTWLEHNKGFCNSRQLHKTIVSDKGRAVFNGLINVAQHAIKTDGQMTNNNLLMGKLAEVDTKPQLEIYADDVKCSHGATVGRIDDEQIFYLRSRGINQQDAQQMIIYAFAAELTEALRDEGLKQQVLARIGQRLPGGAR	4.76 ± 0.4	3.22 ± 0.11	2.1 ± 0.063	3.45 ± 1.1	1.99 ± 0.24	2.2 ± 0.22	3.91 ± 0.52	5.81 ± 0.08	2.37 ± 0.38	2.817 ± 0.0043	3.2 ± 0.23	6.04 ± 0.41
